B1: i7-01s-02 (Ac-[Tat]-RLIQ(R8)REDREK(S5)RAV-NH2) (peptide)
peptide: Ac-YGRKKRRQRRRRLIQ[R8]REDREK[S5]RAV-NH2
modifications: staple 16-23
SMILES: CC[C@H](C)[C@H](NC(=O)[C@H](CC(C)C)NC(=O)[C@H](CCCNC(=N)N)NC(=O)[C@H](CCCNC(=N)N)NC(=O)[C@H](CCCNC(=N)N)NC(=O)[C@H](CCCNC(=N)N)NC(=O)[C@H](CCC(N)=O)NC(=O)[C@H](CCCNC(=N)N)NC(=O)[C@H](CCCNC(=N)N)NC(=O)[C@H](CCCCN)NC(=O)[C@H](CCCCN)NC(=O)[C@H](CCCNC(=N)N)NC(=O)CNC(=O)[C@H](Cc1ccc(O)cc1)NC(C)=O)C(=O)N[C@@H](CCC(N)=O)C(=O)N[C@]1(C)CCCCCCC=CCCC[C@@](C)(C(=O)N[C@@H](CCCNC(=N)N)C(=O)N[C@@H](C)C(=O)N[C@H](C(N)=O)C(C)C)NC(=O)[C@H](CCCCN)NC(=O)[C@H](CCC(=O)O)NC(=O)[C@H](CCCNC(=N)N)NC(=O)[C@H](CC(=O)O)NC(=O)[C@H](CCC(=O)O)NC(=O)[C@H](CCCNC(=N)N)NC1=O
B2: i7-01s-45 (Ac-[Tat]-RLKQ(R8)LEDVEK(S5)RKR-NH2) (peptide)
peptide: Ac-YGRKKRRQRRRRLKQ[R8]LEDVEK[S5]RKR-NH2
modifications: staple 16-23
SMILES: CC(=O)N[C@@H](Cc1ccc(O)cc1)C(=O)NCC(=O)N[C@@H](CCCNC(=N)N)C(=O)N[C@@H](CCCCN)C(=O)N[C@@H](CCCCN)C(=O)N[C@@H](CCCNC(=N)N)C(=O)N[C@@H](CCCNC(=N)N)C(=O)N[C@@H](CCC(N)=O)C(=O)N[C@@H](CCCNC(=N)N)C(=O)N[C@@H](CCCNC(=N)N)C(=O)N[C@@H](CCCNC(=N)N)C(=O)N[C@@H](CCCNC(=N)N)C(=O)N[C@@H](CC(C)C)C(=O)N[C@@H](CCCCN)C(=O)N[C@@H](CCC(N)=O)C(=O)N[C@]1(C)CCCCCCC=CCCC[C@@](C)(C(=O)N[C@@H](CCCNC(=N)N)C(=O)N[C@@H](CCCCN)C(=O)N[C@@H](CCCNC(=N)N)C(N)=O)NC(=O)[C@H](CCCCN)NC(=O)[C@H](CCC(=O)O)NC(=O)[C@H](C(C)C)NC(=O)[C@H](CC(=O)O)NC(=O)[C@H](CCC(=O)O)NC(=O)[C@H](CC(C)C)NC1=O
B3: i7-01s-37 (Ac-[Tat]-RLIQ(R8)KEDVEK(S5)RKR-NH2) (peptide)
peptide: Ac-YGRKKRRQRRRRLIQ[R8]KEDVEK[S5]RKR-NH2
modifications: staple 16-23
SMILES: CC[C@H](C)[C@H](NC(=O)[C@H](CC(C)C)NC(=O)[C@H](CCCNC(=N)N)NC(=O)[C@H](CCCNC(=N)N)NC(=O)[C@H](CCCNC(=N)N)NC(=O)[C@H](CCCNC(=N)N)NC(=O)[C@H](CCC(N)=O)NC(=O)[C@H](CCCNC(=N)N)NC(=O)[C@H](CCCNC(=N)N)NC(=O)[C@H](CCCCN)NC(=O)[C@H](CCCCN)NC(=O)[C@H](CCCNC(=N)N)NC(=O)CNC(=O)[C@H](Cc1ccc(O)cc1)NC(C)=O)C(=O)N[C@@H](CCC(N)=O)C(=O)N[C@]1(C)CCCCCCC=CCCC[C@@](C)(C(=O)N[C@@H](CCCNC(=N)N)C(=O)N[C@@H](CCCCN)C(=O)N[C@@H](CCCNC(=N)N)C(N)=O)NC(=O)[C@H](CCCCN)NC(=O)[C@H](CCC(=O)O)NC(=O)[C@H](C(C)C)NC(=O)[C@H](CC(=O)O)NC(=O)[C@H](CCC(=O)O)NC(=O)[C@H](CCCCN)NC1=O
B4: i7-01s-10 (Ac-[Tat]-RLIQ(R8)REDREK(S5)RAR-NH2) (peptide)
peptide: Ac-YGRKKRRQRRRRLIQ[R8]REDREK[S5]RAR-NH2
modifications: staple 16-23
SMILES: CC[C@H](C)[C@H](NC(=O)[C@H](CC(C)C)NC(=O)[C@H](CCCNC(=N)N)NC(=O)[C@H](CCCNC(=N)N)NC(=O)[C@H](CCCNC(=N)N)NC(=O)[C@H](CCCNC(=N)N)NC(=O)[C@H](CCC(N)=O)NC(=O)[C@H](CCCNC(=N)N)NC(=O)[C@H](CCCNC(=N)N)NC(=O)[C@H](CCCCN)NC(=O)[C@H](CCCCN)NC(=O)[C@H](CCCNC(=N)N)NC(=O)CNC(=O)[C@H](Cc1ccc(O)cc1)NC(C)=O)C(=O)N[C@@H](CCC(N)=O)C(=O)N[C@]1(C)CCCCCCC=CCCC[C@@](C)(C(=O)N[C@@H](CCCNC(=N)N)C(=O)N[C@@H](C)C(=O)N[C@@H](CCCNC(=N)N)C(N)=O)NC(=O)[C@H](CCCCN)NC(=O)[C@H](CCC(=O)O)NC(=O)[C@H](CCCNC(=N)N)NC(=O)[C@H](CC(=O)O)NC(=O)[C@H](CCC(=O)O)NC(=O)[C@H](CCCNC(=N)N)NC1=O
B5: i7-01s-58 (Ac-[Tat]-RLIE(R8)REIVEK(S5)RKR-NH2) (peptide)
peptide: Ac-YGRKKRRQRRRRLIE[R8]REIVEK[S5]RKR-NH2
modifications: staple 16-23
SMILES: CC[C@H](C)[C@H](NC(=O)[C@H](CC(C)C)NC(=O)[C@H](CCCNC(=N)N)NC(=O)[C@H](CCCNC(=N)N)NC(=O)[C@H](CCCNC(=N)N)NC(=O)[C@H](CCCNC(=N)N)NC(=O)[C@H](CCC(N)=O)NC(=O)[C@H](CCCNC(=N)N)NC(=O)[C@H](CCCNC(=N)N)NC(=O)[C@H](CCCCN)NC(=O)[C@H](CCCCN)NC(=O)[C@H](CCCNC(=N)N)NC(=O)CNC(=O)[C@H](Cc1ccc(O)cc1)NC(C)=O)C(=O)N[C@@H](CCC(=O)O)C(=O)N[C@]1(C)CCCCCCC=CCCC[C@@](C)(C(=O)N[C@@H](CCCNC(=N)N)C(=O)N[C@@H](CCCCN)C(=O)N[C@@H](CCCNC(=N)N)C(N)=O)NC(=O)[C@H](CCCCN)NC(=O)[C@H](CCC(=O)O)NC(=O)[C@H](C(C)C)NC(=O)[C@H]([C@@H](C)CC)NC(=O)[C@H](CCC(=O)O)NC(=O)[C@H](CCCNC(=N)N)NC1=O
B6: i7-01s-57 (Ac-[Tat]-RRIQ(R8)MEDVLK(S5)RKR-NH2) (peptide)
peptide: Ac-YGRKKRRQRRRRRIQ[R8]MEDVLK[S5]RKR-NH2
modifications: staple 16-23
SMILES: CC[C@H](C)[C@H](NC(=O)[C@H](CCCNC(=N)N)NC(=O)[C@H](CCCNC(=N)N)NC(=O)[C@H](CCCNC(=N)N)NC(=O)[C@H](CCCNC(=N)N)NC(=O)[C@H](CCCNC(=N)N)NC(=O)[C@H](CCC(N)=O)NC(=O)[C@H](CCCNC(=N)N)NC(=O)[C@H](CCCNC(=N)N)NC(=O)[C@H](CCCCN)NC(=O)[C@H](CCCCN)NC(=O)[C@H](CCCNC(=N)N)NC(=O)CNC(=O)[C@H](Cc1ccc(O)cc1)NC(C)=O)C(=O)N[C@@H](CCC(N)=O)C(=O)N[C@]1(C)CCCCCCC=CCCC[C@@](C)(C(=O)N[C@@H](CCCNC(=N)N)C(=O)N[C@@H](CCCCN)C(=O)N[C@@H](CCCNC(=N)N)C(N)=O)NC(=O)[C@H](CCCCN)NC(=O)[C@H](CC(C)C)NC(=O)[C@H](C(C)C)NC(=O)[C@H](CC(=O)O)NC(=O)[C@H](CCC(=O)O)NC(=O)[C@H](CCSC)NC1=O

Bridge positions count the residues as written; N and C are the ends. Square brackets hold non-standard residues; d marks the D form. R8 = C=CCCCCCC[C@@](C)(N)C(=O)O; S5 = C=CCCC[C@](C)(N)C(=O)O

What is called Kd is the free concentration of one partner at which half of the binding sites on the other are occupied at equilibrium, for simple one-to-one binding. Read a low Kd as a tighter complex.

The target in this assay is T1, Beclin 1 coiled coil domain (human Beclin 1, residues 176-268) (human, UniProt Q14457 176-268).
T1 construct: range 176-268; also called Beclin 1 coiled coil domain protein
T1 sequence (Q14457 176-268 limits assumed): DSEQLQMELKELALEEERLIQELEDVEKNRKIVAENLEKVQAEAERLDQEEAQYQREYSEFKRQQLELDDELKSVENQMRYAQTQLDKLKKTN
Briefly: ITC, peptide titrated into Beclin 1 coiled coil domain, 25 C, one-site model. For orientation: In ITC the heat of successive injections is recorded.
For B1, the affinity, expressed as Kd, was 0.86 µM. This lies in the sub-micromolar range.

Molecule B2 yielded a Kd of 1.41 µM. This Kd lies about 1.6-fold higher than the previous one. For B3, binding was characterised by a dissociation constant (Kd) of 2.41 µM. The result for B4 reads 2.03 µM; that for B5, 0.61 µM; that for B6, 2.2 µM. The result for Ac-YGRKKRRQRRRRLISEL[R8]DREKQR[S5]A-NH2 (staple 18-25) [Tat-SP4 (Ac-[Tat]-RLISEL(R8)DREKQR(S5)A-NH2)] reads 3.21 µM.

Values taken from patent US20240190920A1 (SHENZHEN RESEARCH INSTITUTE OF THE HONG KONG POLYTECHNIC …, published 2024).
